Measured values: patent publication US20060166332

Target: Cre recombinase (Bacteriophage P1?) (UniProt P06956)
Test: cell_activity
Conditions: pCH110 control without loxP in Sure:cre

Sequence of UniProt P06956 (P06956 whole entry): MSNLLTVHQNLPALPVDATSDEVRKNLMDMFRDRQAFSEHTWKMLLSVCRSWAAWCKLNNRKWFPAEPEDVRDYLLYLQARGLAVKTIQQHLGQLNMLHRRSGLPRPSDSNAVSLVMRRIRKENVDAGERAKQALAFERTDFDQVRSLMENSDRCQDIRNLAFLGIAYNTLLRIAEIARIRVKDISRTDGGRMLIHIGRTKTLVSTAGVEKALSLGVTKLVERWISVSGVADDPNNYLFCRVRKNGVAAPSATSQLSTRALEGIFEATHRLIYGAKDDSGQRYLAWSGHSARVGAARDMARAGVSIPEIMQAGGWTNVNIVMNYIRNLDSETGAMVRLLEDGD

Substance: pCH110 plasmid without loxP
- activity (% white colonies): 0
